Positions count from the first letter of the chain named.
Tests used:
Test in all cases: pull-down; 0.3–20 µg of His-14-3-3κ incubated with MBP or MBP-PIFs in MBP column buffer at 4 °C in dark for 5–6 h, then amylose resin overnight; elution with 10 mM maltose; blot with anti-His and anti-MBP
Conditions in all cases: both partners purified
[1] = molecular target: T1, maltose-binding protein (MBP)-tagged PIF3 (Arabidopsis thaliana, UniProt O80536 1-524)
T1 construct: Transcription factor PIF3, Arabidopsis thaliana, AGI AT1G09530; also called MBP-PIF3; source: E. coli BL21 (DE3), purified (amylose resin)
T1 sequence (looked up): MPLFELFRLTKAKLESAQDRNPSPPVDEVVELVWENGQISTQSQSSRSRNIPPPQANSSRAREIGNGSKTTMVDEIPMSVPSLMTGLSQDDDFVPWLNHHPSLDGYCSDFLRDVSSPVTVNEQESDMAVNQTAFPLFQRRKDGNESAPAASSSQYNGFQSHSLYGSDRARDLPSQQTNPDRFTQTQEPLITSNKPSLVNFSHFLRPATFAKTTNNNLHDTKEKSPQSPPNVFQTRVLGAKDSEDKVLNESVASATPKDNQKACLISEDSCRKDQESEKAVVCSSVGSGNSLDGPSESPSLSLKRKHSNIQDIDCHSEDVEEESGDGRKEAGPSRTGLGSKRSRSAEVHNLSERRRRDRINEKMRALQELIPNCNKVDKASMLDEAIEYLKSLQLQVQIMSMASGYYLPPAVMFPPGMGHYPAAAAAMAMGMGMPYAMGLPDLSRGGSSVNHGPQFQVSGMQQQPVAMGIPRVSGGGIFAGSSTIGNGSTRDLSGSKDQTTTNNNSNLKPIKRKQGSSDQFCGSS

[2] = molecular target: T2, MBP-PIF3ala1+2 (PIF3 S23A S115A S116A) (Arabidopsis thaliana, UniProt O80536 1-524, S23A | S115A | S116A)
T2 construct: Transcription factor PIF3, Arabidopsis thaliana, AGI AT1G09530; ala1: Ser-23 to Ala; ala2: Ser-115 and Ser-116 to Ala; The cloning of the mutant into pMAL is not described on its own; source: E. coli BL21 (DE3), purified (amylose resin)
T2 sequence (looked up): T1 sequence (looked up) with S23A, S115A, S116A

MBP-PIF1 = molecular target: T3, MBP-PIF1 (Arabidopsis thaliana, UniProt Q8GZM7 1-478)
T3 construct: Transcription factor PIF1, Arabidopsis thaliana; source: E. coli BL21 (DE3), purified (amylose resin)
T3 sequence (looked up): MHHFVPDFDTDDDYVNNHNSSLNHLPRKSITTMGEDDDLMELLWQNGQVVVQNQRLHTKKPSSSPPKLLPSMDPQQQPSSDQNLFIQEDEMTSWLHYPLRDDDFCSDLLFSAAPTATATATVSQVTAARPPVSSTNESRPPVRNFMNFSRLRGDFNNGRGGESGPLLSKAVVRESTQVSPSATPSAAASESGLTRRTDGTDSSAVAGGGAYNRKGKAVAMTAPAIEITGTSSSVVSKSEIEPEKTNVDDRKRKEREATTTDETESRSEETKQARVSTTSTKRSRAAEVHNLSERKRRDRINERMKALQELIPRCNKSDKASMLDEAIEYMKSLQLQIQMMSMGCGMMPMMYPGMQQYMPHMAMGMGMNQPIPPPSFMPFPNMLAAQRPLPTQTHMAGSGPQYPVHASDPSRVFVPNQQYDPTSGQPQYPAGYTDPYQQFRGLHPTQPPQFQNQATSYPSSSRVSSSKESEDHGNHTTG

Measured: binding result

B1: His-tagged 14-3-3κ (natural protein, Arabidopsis thaliana, UniProt P48348 1-248, looked up)
chain: MATTLSRDQYVYMAKLAEQAERYEEMVQFMEQLVSGATPAGELTVEERNLLSVAYKNVIGSLRAAWRIVSSIEQKEESRKNEEHVSLVKDYRSKVETELSSICSGILRLLDSHLIPSATASESKVFYLKMKGDYHRYLAEFKSGDERKTAAEDTMIAYKAAQDVAVADLAPTHPIRLGLALNFSVFYYEILNSSEKACSMAKQAFEEAIAELDTLGEESYKDSTLIMQLLRDNLTLWTSDMQEQMDEA
notes: 14-3-3 kappa isoform, Arabidopsis thaliana; also called HIS-14-3-3κ; His-14-3-3κ
binds: all assays above
